According to the DeepSol protein solubility set:

test: soluble on expression in E. coli; label from the status in PepcDB or PDB records

| Sequence | soluble on expression in E. coli |
| --- | --- |
| MEVLLTETFYTIGRSPRADIRIKSQFVSRIHAVLVRKSSDDVQAAYRIIDGDEDGQSSVNGLMINGKKVQEHIIQTGDEIVMGPQVSVRYEYRRRDQFGTMLEHHHHHH | not soluble |
| MEVMAQIVLAPHLAGRFDDPDHIRRCIQLYSYRIPANYRRLFDFLFNTEQDFPDCDEFSFFVSVRLNIPTKILNFSEEFGKCVSLHILRKLDVIPPFSKRSQLIILKEVESLKKSIRLCDHMEQCVVAAFQQLLEDEEACIQSVHRLMPVITRSLSQSALEDLINPMIELIQCETSVKLLDRRFLMHVSICYGTHTFLDLFLPPIVEACASMNCDRSVVAKESIMWLAKRYGPVICAKFISSNVLRIMASCYEAFEMVGLEQQPKAVFNVVLQGDETCSRIESLLSEIVLTYSVTFITVQFLPFCVDLIEQFHKRSSVQLEPGLVSVFRIVELSIRSMSDHQLMNYLEEFIIQKVCQLLHSITQKIGTENTRIYANQPFKLMFSTFSEIYETDEELRINLRKRPSENTLFEVPLWMVEDVVDKFAKEWGVPFLSSFCDDPAFLIPFVSNSSSSSSPPASIAHSPPSAFTAYSLGGMSSGNRLFSLSASSPVNSVNSLGGLSFCDSGSLSAVWCARVSAAVCGVDNYRFDHLSLCNYTGHQEKIRKLAAISNENSFVSASSDKTVKLWSIKPELDEIGCQWTYQKHTRPVHDITILADNSIASTDGVLHVWDPFRTTLLAQMEWDSKEGSGGNIMRVENVDRHILSAICSLHSTVKLFDSRVGGWTCELKVSPGPGLTRAITVRDKGNKMAVALSNGTLAILDARNGKINALAQTNSTHTVSVNWLSDTRLLVCDADECGIFLETNPRAHIVRKLQDPSIPKQW | not soluble |
| MEVPSLFTNFFAVNNPDSPPARQKTKLRELEHRFWQEHLPGDDDDHSTAISSLAIVTGLTKAQVSRISIAFATLADLPELKALQQKLYHLDLSRLITISNELAGINPDNLAGADAILTEYLTATSPNQILPSPASIGRKIKEIRDLLDDARATGSRGTQDDSSFGVTFSPDGTAEIGASVDAVDGHIINDAVTQHAKKNDLTYGEAFSDILRNNIQVKVVLNLYTAKDLANAPVWASGIGWLDAKTGTFWSEKANKEQDMDAAAKISTDKHDPPPALRDALIGRDGTCRFPGCSVPALKTQADHRIPYEEGGETCLGGIGCLCQHHHNMKTDGRVTYLLDPFSGIIVWLMGDGTWAVSEPNGPLNPKNARWAQTVAQHRARHHKRWVKEDAKLEHHHHHH | not soluble |
| MEVSHVTLEPNKDSRPAVLTIGKFDGVHLGHQTILNTALSIKKENEILTAISFSPHPLWALKQIEIYREMLTPRMEKERWLAHYGVDHLIETAFTPRYAETTPEEFVTDHLSNLQLSHIIVGSEFNFGKGRDSDVDLLRDLCKPYGIGVTSVPVIETNQTKISSTNIRAFIRRGHFLEAEQLLGHP | not soluble |
| MEVVLHEGDAKDWVYKGEGAANLILSYTGSSPSMLGKVLRVKKILKDKGQPAPNCIVFSSHEEHLWGKIPGLLESVKNDCLPQAYATIVMSQHLGANHVDGGVRVRVSKNFFELAGKNVLDNRPAWRVNASAIDAGADSALLISDHTLFSGNPRGSSCIAVEIKAKCGFLPSSEYISKENSIKKQVTRYKMHQHLKFHLGEISKTSEYDPLDLFSGSKERIHMAIKSFFSTPQNNFRIFVDGSLVFGGMGGGADSVHPNETEKCLEDLSKVTGLQLSDFIELLSEAIFKSGVLGKLLATQKLDDHDIEGAIHLYYNIISQPCLVCKSITDTELLRKYSTLHSLPLDKSEKIVRDFLISATAKDCSLMISFRPRQSGTTDSEYDSVFLDSVNQSYDYKAYFIDLDVKPLDKMVLLPSRENV | soluble |
| MEWIKQILAKHMKEDGTLDMEAANKEIDKEFPVNAVPKDQYNNLSSQLAEANKTLKSLEAKTKDNPDVQKELADLKEKADALEKENKDLKINSQVSAALQSAGAKDIDYALFKLGELELDKDGNVKDLESKVKDLKASIPDYFEKKDTLDDKSKKKTENKAGYQPIDNKLPKGKEPNEKDPFEAILSKYE | not soluble |
| MEYFDMRKMSVNLWRNAAGETREICTFPPAKRDFYWRASIASIAANGEFSLFPGMERIVTLLEGGEMLLESADRFNHTLKPFQPFAFAADQVVKAKLTAGQMSMDFNIMTRLDVCKAKVRIAERTFTTFGSRGGVVFVINGAWQLGDKLLTTDQGACWFDGRHTLRLLQPQGKLLFSEINWLAGHSPDQVQ | soluble |
| MEYKPIRKVVSGNYAAAYAALHARVQVVAAYPITPQTSIIEKIAEFIANGEADIQYIPVESEHSAMAACIGASATGARTFTATSAQGLALMHEMLHWAAGARLPIVMVDVNRAMAPPWSVWDDQTDSLSQRDTGWMQFYAENNQEVYDGVLMAYKVAETVNVPAMVVESAFILSHTYDVVEMIPQELVDEFLPPRKPLYSLANFDEPIAVGALATPNDYYEFRYKLAKAHEEAKKVIKEVGKEFGERFGRDYSQMIETGYIDDADFVFMGMGSLMGTVKEAVDLLRKEGYKVGYAKVRWFRPFPKEELVEIAESVKGIAVLDRNFSFGQEGILFTESKGALYNSSAHPLMKNYIVGLGGRDVTVKDIKAIADDMKKVIESGKVDKEVVWYHLKR | not soluble |
| MEYQFTHSIHGIVAKCSMEHEVFARWLNTEIIGHTQNLHNILAEIEKCRAAFPNHYECVFEGQEYSLYFDCDEVIVKVNNLAMAIDEVIVEEGLQLYDQESVAFCGLEDFERFLQAYHKFSSTYH | not soluble |
| MEYRKVGKWGVKISELSLGSWLTFGKQLDLDTATEVVKKAFNSGINFFDTAEAYAGGIAEAMLGKILKNFRREDLVVSTKIFWGGSGPNDLGLSKKHLLEGTWNSLKRLQMDYVDILYCHRPDPNVPMEEVVFAMDYILREGLALYWGTSEWSAKEIEEAHRVCKELGVMPPIVEQPQYNMFVRERVEKEYAPLYEKYGMGLTTYSPLASGLLSGKYNNGIPEGSRLATFPQVRKWLEEGGLLNEKTFKKLRKLQNIADQLGASLPQLAIAWILKNKNVSSVILGVSRPEQLEENLKAVEIKEKLTEDVMEEIEKILNE | soluble |
| MFARLANPAHFKPLTGSHITRAAKRLYHPKVIDHYTNPRNVGSMDKSLANVGTGIVGAPACGDVIKLQIQVNDKSGIIENVKFKTFGCGSAIASSSYMTELVRGMSLDEAVKIKNTEIAKELSLPPVKLHCSMLAEDAIKAAIKDYKTKRNPSVLH | not soluble |
| MFAVRTKFVTKTEVVLRTVYTALEKGLAVIGPTQVAEELGVSKSTAQKMLNELSKAGYGVYVPKKGLVLNERGKMEARAAVRMHRLIECLLADLGVEDFCKEAEKIGMVAGSSLVDALEARYGDREFCPCGKRIPEVKK | not soluble |
| MFCGRFANFIMRDVINFIKKYNNFVIIGHKDPDFDCIGSSLALSSFLSRIGKNSILLNEGPFIRKEIVPFKDKFLSEWPNIEISEYSVIILDCSILDRIGDEFIFYVKNMPTLVIDHHMSGEKLECEGYIDPFAPSTTFLIEKLIREFGHDLTKEEAWYILVGFCTDTGFFKFISRSDPEPFEMVARLVSKGISLKEVYSYIETTKSLKSIETLKLMLNSLESYWNGKVLFTFLSSSSSGKDGGVSGVNELFYMILSNVENNEILGILKEMEDGSIIVGLRSKDSFDVGKLAEDFGGGGHKNASGFRIKQGSLEIVKNRMLAYIKDNIYLLEHHHHHH | not soluble |
| MFDILMYLFENYVHSEVELLVDEDELTKELTRAGFHQSEILKALTWLERLAELQEGDKPYLCNHDQHSFRIYTKDEMEKLDVECRGFLLFLEQVKVLNVETREMVIDRVMELDEPALILEDLKWVILMVLFNAPGHESAYEQMEDLIFEQPEEGRLHS | soluble |
| MFEEGSEDEVTLMGCTQDEVKPKVGLSQKKWFPKEDIVLVRAWLNTNKDHVIGNDQQCQSFLKQIASYVAISPQLDYLPKREHAKCKQRWSKVNKSVTKFVGCYKTATTHKTSGQSEDDVMKLAYEIYYNDTKKKFNLEHTWRKLRYDQKWCEAATIKGNKNAKRKCVDGY | soluble |
| MFEGKLVRLRAYRKEDIEKALEFANDPEVKKCLVPGIPFPWRKEDEEKWYQSLNPFSTDSYSFAIEKLSDGEYIGGCSINKIDWKNSVAEVGIFLGRPYWSQGYGTDAMRVLVRFIFNEMNMNKIKLHVFSFNERAKRVYEKIGFKVEGILRQELFREGRYHDVIVMGLLKSEWEDLTETDL | soluble |
